Key:
[1] = biological target: T1, chimpanzee PSMA extracellular domain (PSMW8), 6His and Avi tag (chimpanzee, UniProt Q04609 44-750 (human entry), biotinylated in bead-based selections and the ELISA screen); assay: hit from CIS-display panning and ELISA screen on PSMA of this species (column Antigen species)
T1 construct: Cloned along with a 6His and Avi tag; Buffer with ZnCl2 to stabilise PSMA dimerisation; also called pan 229
T1 chain: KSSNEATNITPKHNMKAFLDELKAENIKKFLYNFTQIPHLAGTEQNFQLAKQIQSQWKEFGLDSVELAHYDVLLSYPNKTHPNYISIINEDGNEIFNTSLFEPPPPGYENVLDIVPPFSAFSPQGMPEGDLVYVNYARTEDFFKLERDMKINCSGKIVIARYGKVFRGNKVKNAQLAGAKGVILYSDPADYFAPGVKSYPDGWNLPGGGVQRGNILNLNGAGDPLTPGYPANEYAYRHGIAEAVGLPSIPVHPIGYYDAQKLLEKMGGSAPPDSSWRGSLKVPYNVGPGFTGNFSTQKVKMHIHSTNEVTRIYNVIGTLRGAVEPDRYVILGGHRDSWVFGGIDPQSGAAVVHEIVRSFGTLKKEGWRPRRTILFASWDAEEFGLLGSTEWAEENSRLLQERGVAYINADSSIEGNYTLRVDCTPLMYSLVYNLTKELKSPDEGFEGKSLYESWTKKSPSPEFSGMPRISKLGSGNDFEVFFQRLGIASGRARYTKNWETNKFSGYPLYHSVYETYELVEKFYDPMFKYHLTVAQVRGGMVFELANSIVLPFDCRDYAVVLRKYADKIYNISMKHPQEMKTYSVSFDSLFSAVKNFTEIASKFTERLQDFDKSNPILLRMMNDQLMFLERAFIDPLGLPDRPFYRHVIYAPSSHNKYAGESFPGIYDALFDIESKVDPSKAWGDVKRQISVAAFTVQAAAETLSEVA

[2] = biological target: T2, isolated cynomolgus PSMA (cynoPSMA) extracellular domain, Fc removed (cynomolgus, UniProt Q04609 44-750 (human entry), N-linked glycans seen at Asn-76, -121, -140, -195, -459, -476, -613 and -638 (numbering of SEQ ID NO: 141)); assay: X-ray crystal structure of the complex
T2 construct: Expressed in GnTI- cells as a C-terminal fusion to huIgG1 Fc; the ECD starts at residue 44 of that entry; the structure includes residues 57-750; also called cynomolgous PSMA dimer
T2 chain: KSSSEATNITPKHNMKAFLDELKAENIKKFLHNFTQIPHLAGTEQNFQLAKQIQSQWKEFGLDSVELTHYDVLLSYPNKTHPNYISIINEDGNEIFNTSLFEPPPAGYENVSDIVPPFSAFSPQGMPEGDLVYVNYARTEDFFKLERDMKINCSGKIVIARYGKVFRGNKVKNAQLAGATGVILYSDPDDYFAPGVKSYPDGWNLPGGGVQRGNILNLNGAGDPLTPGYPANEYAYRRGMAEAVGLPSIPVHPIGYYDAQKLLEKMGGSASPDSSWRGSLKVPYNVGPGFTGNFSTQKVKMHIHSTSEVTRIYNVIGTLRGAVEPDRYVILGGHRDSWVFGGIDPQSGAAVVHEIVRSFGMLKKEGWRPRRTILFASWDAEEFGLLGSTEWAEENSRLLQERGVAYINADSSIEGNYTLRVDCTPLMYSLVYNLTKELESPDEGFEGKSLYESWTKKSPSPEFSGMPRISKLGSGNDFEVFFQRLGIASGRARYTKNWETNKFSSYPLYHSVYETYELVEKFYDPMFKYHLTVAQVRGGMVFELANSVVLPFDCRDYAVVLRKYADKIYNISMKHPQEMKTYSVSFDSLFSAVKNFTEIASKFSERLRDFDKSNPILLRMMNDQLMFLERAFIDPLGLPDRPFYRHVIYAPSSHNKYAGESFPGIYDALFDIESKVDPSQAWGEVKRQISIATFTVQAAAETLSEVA
Method: The H10 FN3 Domain/cynoPSMA complex was prepared by mixing cynoPSMA with H10 FN3 domain at a molar ratio of 1:3 (excess FN3 domain) while dialyzing for 48 h at 4° C. against 20 mM Hepes pH 7.0, 0.5 mM ZnCl₂. The complex was then eluted from a monoS column with a gradient of 48-68 mM NaCl, 20 mM Hepes pH 7.5, 10% glycerol and concentrated to 3.4 mg/mL. Crystals suitable for X-diffraction were obtained from 25% PEG 3 kDa, 0.2 M NH₄Cl, 0.1 M Na Acetate pH 4.5 using the sitting drop vapor-diffusion method at 20° C.
For X-ray data collection, the crystal was soaked for a few seconds in a cryo-protectant solution containing mother liquor supplemented with 20% glycerol, and then frozen in liquid nitrogen. X-ray diffraction data were collected with a Dectris Pilatus 6M Pixel Array detector at the beamline 17-ID of the Advanced Photon Source (APS) at Argonne National Laboratory. Diffraction data were processed with the program HKL2000 (Otwinowski & Minor, 1997).

[3] = biological target: T3, human PSMA on tumor cells (LNCaP, MDA-PCA-2B, VCAP, 22Rv1) (human, UniProt Q04609 1-750); assay: cell-based or functional assay
[4] = biological target: T3, human PSMA on tumor cells (LNCaP, …); assay: cell-based or functional assay; remark: listed apart in the source
[5] = biological target: T4, cell-surface CD3E on primary human T cells (human, UniProt P07766 23-207); assay: flow cytometry on primary human T cells, positive control
T4 construct: whole, on cells; On the cells CD3E stands in the CD3/T cell receptor complex; also called human CD3
Method: The resulting panel of anti-CD3 antibodies was tested for binding against cell-surface CD3E on primary human T cells. To do this, binding of antibodies from expression supernatants was visualized using a polyclonal anti-human secondary antibody and analyzed by flow cytometry. Briefly, binding of anti-CD3 antibodies to cell-surface CD3E was assessed by flow cytometry using primary Human T lymphocytes purified by negative selection (Biological Specialty, Colmar, USA). Expression supernatants or purified antibodies were normalized to 10 μg/ml in media or FACS buffer (BD BioSciences), respectively. 2×10⁵ cells were aliquoted into wells of a 96 well round-bottomed plate (CoStar) for labeling. Antibodies in expression supernatant were added to cells and incubated for 45 min at 4° C. Following centrifugation at 1300 rpm for 3 min and removal of supernatant, 50 μL of anti-human IgG (H+L) Alexa Fluor 647 secondary antibody (Life technologies Inc.) was incubated with the cells at a final concentration of 10 μg/mL for 30 min at 4° C. away from direct light. Following washing and resuspension in 30 μL FACs buffer (BD BioSciences). Sample collection was performed on an Intellicyt HTFC system using ForeCyt software. […] Graphs were generated in GraphPad Prism version 5 using mean fluorescence intensity values. […]

[6] = biological target: T5, cynomolgus CD3E on primary cynomolgus CD4+ T cells (cynomolgus, UniProt Q95LI5 22-198); assay: stated for the flow cytometry assay on primary cynomolgus CD4+ T cells
T5 construct: whole, on cells; On the cells CD3E stands in the CD3/T cell receptor complex

[7] = biological target: T4, cell-surface CD3E on primary human T …; assay: flow cytometry on primary human T cells, anti-human IgG Alexa Fluor 647 secondary
Method: (§1) The resulting panel of anti-CD3 antibodies was tested for binding against cell-surface CD3E on primary human T cells. To do this, binding of antibodies from expression supernatants was visualized using a polyclonal anti-human secondary antibody and analyzed by flow cytometry. Briefly, binding of anti-CD3 antibodies to cell-surface CD3E was assessed by flow cytometry using primary Human T lymphocytes purified by negative selection (Biological Specialty, Colmar, USA). Expression supernatants or purified antibodies were normalized to 10 μg/ml in media or FACS buffer (BD BioSciences), respectively. 2×10⁵ cells were aliquoted into wells of a 96 well round-bottomed plate (CoStar) for labeling. Antibodies in expression supernatant were added to cells and incubated for 45 min at 4° C. Following centrifugation at 1300 rpm for 3 min and removal of supernatant, 50 μL of anti-human IgG (H+L) Alexa Fluor 647 secondary antibody (Life technologies Inc.) was incubated with the cells at a final concentration of 10 μg/mL for 30 min at 4° C. away from direct light. Following washing and resuspension in 30 μL FACs buffer (BD BioSciences). Sample collection was performed on an Intellicyt HTFC system using ForeCyt software. Viable single cells were gated prior to analysis of binding using the green or red fixable live/dead dyes (Life Technologies Inc.) and forward/side scatter area and height parameters, respectively. Graphs were generated in GraphPad Prism version 5 using mean fluorescence intensity values.
Two in-house phage-derived antibodies with the same Fc region as the therapeutic antibodies were used as controls: G11 (HC SEQ ID NO:176, LC SEQ ID NO:177), a non-cyno cross-reactive, agonistic antibody was used as a positive control and CD3B94 (HC-SEQ ID NO:178, LC—SEQ ID NO:179) a non-binder/non-agonistic antibody was used to assess non-specific binding. The commercial SP34 antibody was not used as a comparator in this assay since it is a mouse antibody and the use of a different secondary detection reagent would have prohibited direct comparison with the variants tested.

[8] = biological target: T5, cynomolgus CD3E on primary cynomolgus …; assay: flow cytometry on primary cynomolgus CD4+ T cells
Method: as §1
Binding analysis of the anti-CD3 hits to primary cynomolgusCD4+ T cells was then tested in order to assess the retention of cross-reactivity. Purified CD4+ T cells from the peripheral blood of cynomolgus monkeys (Zen Bio, Triangle Research Park, USA were used). Assay protocols were similar to those described above. […] This included the strong binders CD3B150, CD3B151 and CD3B154, in which binding was reduced, and several weak binders where binding could no longer be detected over background.

T3 sequence (Q04609 whole entry): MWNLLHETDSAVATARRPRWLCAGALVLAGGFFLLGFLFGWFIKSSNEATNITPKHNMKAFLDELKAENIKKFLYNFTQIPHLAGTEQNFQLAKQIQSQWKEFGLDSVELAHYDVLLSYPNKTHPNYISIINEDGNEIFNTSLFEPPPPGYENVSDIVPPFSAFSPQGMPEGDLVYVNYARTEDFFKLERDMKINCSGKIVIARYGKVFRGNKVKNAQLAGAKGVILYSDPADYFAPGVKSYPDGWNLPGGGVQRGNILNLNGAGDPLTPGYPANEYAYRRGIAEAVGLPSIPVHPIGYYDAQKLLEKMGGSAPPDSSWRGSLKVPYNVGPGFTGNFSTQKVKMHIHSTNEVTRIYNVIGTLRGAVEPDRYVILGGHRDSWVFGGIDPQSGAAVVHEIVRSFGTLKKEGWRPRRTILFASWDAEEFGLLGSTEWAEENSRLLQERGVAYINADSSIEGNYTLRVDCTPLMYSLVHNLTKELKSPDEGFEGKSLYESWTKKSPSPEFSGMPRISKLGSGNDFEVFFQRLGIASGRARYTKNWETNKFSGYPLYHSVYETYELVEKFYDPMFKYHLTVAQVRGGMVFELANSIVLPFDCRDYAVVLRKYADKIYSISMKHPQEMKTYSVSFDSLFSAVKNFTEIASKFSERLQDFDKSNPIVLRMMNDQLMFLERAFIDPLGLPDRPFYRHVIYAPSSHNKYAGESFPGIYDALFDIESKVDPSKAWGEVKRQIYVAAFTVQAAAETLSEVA
T5 sequence (Q95LI5 22-198): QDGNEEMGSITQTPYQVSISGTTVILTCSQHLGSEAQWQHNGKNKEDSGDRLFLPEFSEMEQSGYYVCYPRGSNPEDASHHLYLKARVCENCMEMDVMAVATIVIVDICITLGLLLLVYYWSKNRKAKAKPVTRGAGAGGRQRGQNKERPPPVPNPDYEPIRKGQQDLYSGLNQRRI
T4 sequence (P07766 23-207): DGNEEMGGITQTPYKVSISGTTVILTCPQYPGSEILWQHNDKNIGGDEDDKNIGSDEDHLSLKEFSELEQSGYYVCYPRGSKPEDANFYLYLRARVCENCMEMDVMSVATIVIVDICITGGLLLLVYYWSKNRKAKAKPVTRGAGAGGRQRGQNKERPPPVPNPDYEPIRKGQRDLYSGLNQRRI

B1: P233FR9_H10 (designed binder)
chain: LPAPKNLVVSRVTEDSARLSWTAPDAAFDSFAIGYWEWDDDGEAIVLTVPGSERSYDLTGLKPGTEYPVYIAGVKGGQWSFPLSAIFTT
notes: also called H10 FN3 domain; P233FR9_10; not shown: C-terminal poly-histidine tag
[1]
  binding result: binds
[2]
  binding result: binds
[3]
  LNCaP IC50 (nM), cytotoxicity of the FN3 domain-vcMMAF conjugate (CellTiter-Glo): 0.4 nM
[4]
  LNCaP cells IC50 (nM), cytotoxicity of FN3 domain-drug conjugate: 0.5 nM
  MDA-PCA-2B cells IC50 (nM), cytotoxicity of FN3 domain-drug conjugate: 5.8 nM
  VCAP cells IC50 (nM), cytotoxicity of FN3 domain-drug conjugate: 25.9 nM

B2: G11 (antibody, V domains shown)
VH: EVQLLESGGGLVQPGGSLRLSCAASGFTFSSYGMSWVRQAPGKGLEWVSGINGGGGSKYYADSVKGRFTISRDNSKNTLYLQMNSLRAEDTAVYYCAKTSAQRFDYWGQGTLVTVSS
VL: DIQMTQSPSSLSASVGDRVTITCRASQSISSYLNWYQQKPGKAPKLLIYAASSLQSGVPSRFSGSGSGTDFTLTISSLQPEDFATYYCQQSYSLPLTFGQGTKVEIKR
notes: In-house phage-derived anti-CD3 antibody; non-cyno cross-reactive, agonistic; positive control; also called G11 mAb
[5]
  binding result: binds
[6]
  binding result: no binding

B3: CD3B150 (antibody, human IgG1, V domains shown)
VH: EVQLLESGGGLVQPGGSLRLSCAASGFTFNTYAMNWVRQAPGKGLEWVARIRSKYNNYATYYADSVKGRFTISRDNSKNTLYLQMNSLRAEDTAVYYCAKHGNFGNSYVSWFAYWGQGTLVTVSS
VL: QTVVTQEPSLTVSPGGTVTLTCRSSTGAVTTSNYANWVQQKPGQAPRGLIGGTNKRAPGTPARFSGSLLGGKAALTLSGVQPEDEAEYYCALWYSNLWVFGGGTKLTVL
notes: Humanized SP34 variant; human IgG1 constant region with L234A, L235A, F405L; human lambda constant region; also called CDB150
[7]
  binding result: binds
[8]
  binding result: binds

B4: CD3B151 (antibody, human IgG1, V domains shown)
VH: EVQLLESGGGLVQPGGSLRLSCAASGFTFNTYAMNWVRQAPGKGLEWVARIRSKYNNYATYYADSVKGRFTISRDNSKNTLYLQMNSLRAEDTAVYYCVKHGNFGNSYVSWFAYWGQGTLVTVSS
VL: QAVVTQEPSLTVSPGGTVTLTCRSSTGAVTTSNYANWVQQKPGQAPRGLIGGTNKRAPGTPARFSGSLLGGKAALTLSGAQPEDEAEYYCALWYSNLWVFGGGTKLTVL
notes: Humanized SP34 variant; human IgG1 constant region with L234A, L235A, F405L; human lambda constant region; also called CDB151
[7]
  binding result: binds
[8]
  binding result: binds

— patent US20160347840A1 (Janssen / Centocor, published 2016)
